Test [1] has as its target ZEN-4 1-585mAG (C. elegans).
In test [2] the target is VenusZ435-555 (ZEN-4 neck and coiled coil with the motor domain replaced by Venus) (C. elegans). The test can be described thus: SDS-PAGE and densitometry of the purified complex; band intensities of the ZEN-4 and CYK-4 fragments, staining assumed proportional to molecular weight.
Chain of VenusZ435-555 (ZEN-4 neck and coiled coil with the motor domain replaced by Venus) (C. elegans) (main, as listed by the source): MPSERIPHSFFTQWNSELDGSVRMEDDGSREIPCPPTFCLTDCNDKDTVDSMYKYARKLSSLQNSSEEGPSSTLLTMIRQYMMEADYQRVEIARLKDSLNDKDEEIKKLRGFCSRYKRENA

In turn, CYK-4 1-120 (domain or fragment) displayed a microtubule gliding velocity of surface-immobilised Z585mAG co-purified with C120 (180 nm/s for Z585mAG alone) in test [1] of 30 nm/s. For the same substance, in test [2], the stoichiometry N (C120 per ZEN-4 fragment) was 0.94.

Source of the values: publication PMC4395295.
